This note sets out measurements from paper PMC10362054, “p53 restoration in small cell lung cancer identifies a latent cyclophilin-dependent necrosis mechanism” (Nature Communications, 2023).

The target of this experiment is T1, Cyclophilin A (endogenous) (mouse (endogenous in mouse SCLC …, UniProt P17742 1-164)).
T1 construct: cyclophilin A, encoded by Ppia, endogenous in cell lines derived from mouse SCLC tumors; also called CypA; PPIA; source: endogenous, mouse SCLC Type D (4711-18) and Type V (4716-10) cells, fixed cells
T1 sequence (P17742 whole entry): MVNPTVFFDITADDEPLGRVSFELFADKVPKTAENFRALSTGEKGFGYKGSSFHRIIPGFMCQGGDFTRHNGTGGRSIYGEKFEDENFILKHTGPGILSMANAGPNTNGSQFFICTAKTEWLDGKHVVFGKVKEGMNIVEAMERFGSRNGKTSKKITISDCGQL
Briefly: proximity ligation; Duolink PLA on fixed Type D (4711-18) and Type V (4716-10) mouse SCLC cells treated with 4-OHT for 48 h; endogenous proteins; antibodies to p53 and to cyclophilin A, D or E. Conditions: partners not purified.

B1: p53 (endogenous, restored Trp53 allele) (natural protein, UniProt P02340 1-390, looked up)
chain: MTAMEESQSDISLELPLSQETFSGLWKLLPPEDILPSPHCMDDLLLPQDVEEFFEGPSEALRVSGAPAAQDPVTETPGPVAPAPATPWPLSSFVPSQKTYQGNYGFHLGFLQSGTAKSVMCTYSPPLNKLFCQLAKTCPVQLWVSATPPAGSRVRAMAIYKKSQHMTEVVRRCPHHERCSDGDGLAPPQHLIRVEGNLYPEYLEDRQTFRHSVVVPYEPPEAGSEYTTIHYKYMCNSSCMGGMNRRPILTIITLEDSSGNLLGRDSFEVRVCACPGRDRRTEEENFRKKEVLCPELPPGSAKRALPTCTSASPPQKKKPLDGEYFTLKIRGRKRFEMFRELNEALELKDAHATEESGDSRAHSSYLKTKKGQSTSRHKKTMVKKVGPDSD
notes: p53 expressed from the restored endogenous Trp53 allele (p53 R state) in cell lines derived from mouse SCLC tumors; source: endogenous, mouse SCLC Type D (4711-18) and Type V (4716-10) cells after 4-OHT, fixed cells
As for B1, the “fold less PLA interaction in Type V cells than in Type D cells” value was about 10 fold.
